In patent US20220054630A1:

Tests used:
sE2 wild-type = sE2 wild-type (UniProt P27958); experiment: BLI
Wild-type = Wild-type (UniProt P27958); experiment: BLI

CBH-4D
Kd (sE2 wild-type): 8.4 nM

CBH-4G
Kd (Wild-type): 15 nM | Kd (sE2 wild-type): 15 nM

HC33.1
Kd (sE2 wild-type): 9.5 nM

HC84.1
Kd (sE2 wild-type): 30 nM

HC84.26.WH.5DL
Kd (Wild-type): 4.3 nM | Kd (sE2 wild-type): 4.3 nM

HCV1
Kd (sE2 wild-type): 42 nM

HEPC74
Kd (sE2 wild-type): 5.1 nM
